Test: soluble on expression in E. coli; label from the status in PepcDB or PDB records

Row | Sequence | soluble on expression in E. coli
1 | MADSTPILFDRRLLAARLHRAAALGPAPFLLDRVAEEMDERLHAVLRDFTEVADLWTPGGLKLQRFPKLAHLAVDPSGSEALPFAPGSLDLVVSALALQFANDLPGVLAQLRRALKPDGLLLAALTGGETLTELRQAFASAEAEIEGGVSPRVAPAADLRDLGALLQRAGFALPVTDVDRVVVRYDHAFALMQDLRRMGATNVLIERRRTPLRRATLTRMAQIYADRFSDPDGRIRATFEIVWLSGWSPHESQQQPLKPGSAKVSLEEAVRGKRLEHHHHHH | not soluble
2 | MGSDKIHHHHHHMYPKNFWYVGAMKHEVGRQLLARTLLEQPVVFFRRNDGSVAALADRCSHRRVSLSLGRLIGDEVQCGYHGLTFAGDGSCTSIPGQSRVPPSACVRSYPVVERDGFVWIWPGDPALANETLVPDYAEICSSGRYVGRPAEALLVEAPFLFNIENVLDLSHVTYAHPETVGTPEVALTRPTVDVSEAKVQVTRNWDKASTGPSFKNLFGWDFVKNSQRISFWPGANMLLEIEVEPVGNNDPTQIKRLRVPGPCTPSTSTTHFKFSALYRDFLPDNEALTVGMFEQFRKTVMEDKVLMENQQRNWALDGVEVIRRIEPSSSGGMMDIAVDHAPLAARRWLQRLAMAERSAPEIKAPGVLQG | not soluble
3 | MRPYYIAIVGSGPSAFFAAASLLKAADTTEDLDMAVDMLEMLPTPWGLVRSGVAPDHPKIKSISKQFEKTAEDPRFRFFGNVVVGEHVQPGELSERYDAVIYAVGAQSDRMLNIPGEDLPGSIAAVDFVGWYNAHPHFEQVSPDLSGARAVVIGNGNVALDVARILLTDPDVLARTDIADHALESLRPRGIQEVVIVGRRGPLQAAFTTLELRELADLDGVDVVIDPAELDGITDEDAAAVGKVCKQNIKVLRGYADREPRPGHRRMVFRFLTSPIEIKGKRKVERIVLGRNELVSDGSGRVAAKDTGEREELPAQLVVRSVGYRGVPTPGLPFDDQSGTIPNVGGRINGSPNEYVVGWIKRGPTGVIGTNKKDAQDTVDTLIKNLGNAKEGAECKSFPEDHADQVADWLAARQPKLVTSAHWQVIDAFERAAGEPHGRPRVKLASLAELLRIGLG | soluble
4 | MPKAVAVLFFLLFTSLSYAESAFDIVQKSDQAMRGKSSYSEATMEIVRPDWTRSMTMKSWTKGTELSLVLVTAPAKDKGSASLKRHREMWNWVPSIERVIKIAPSMLSQSWMGSDFTNDDLINQSSIVVDYQHALLGNDSFEGDKVWVIEATAKPDAPVVWNKVTLWISQSTYLQRKVEFYDEFDERVNVLTTYDVKELGGRKIATRMEMKPVDKPGNKTIFTTHQAQFDFDINDDFFSQQQMKSLRD | not soluble
5 | MGSDKIHHHHHHMNSEASENRPAHSATGTLWSWHGGNGALIWQLMFSSDAVMGIKRFPQERKAAFFCLESSTGRVLRDDFVLTAGDENETPVGDGWMIGLETVHGSRLVCHTYQPGSPEHLGIWAINLPEARVVWSRPDLTFTANLGDAFLAYRSIVFAGFPERDYVLIDPLSGCELEHLGTAHERPNQLRDAAQSEEERQRILLPDTVFDEAGHVENINHGATSVTVFHRMEPVAEGVPGWVSTLSVSECERLVHEDVMASGEPMPVFNSFLIKDDRLYYIREREFLVSFVVS | not soluble
6 | MSLDAITVDLNYDKNNVAVITPVWSQEWSVANVLGGWVCRSNRNENEGACEETHLVWWYAFGAYSKIRLRFREQISHAEITLILLGSVRDACYTGVINMNAAACQWGRSLKLRIPSEELAKIPTSGTWKATLVLDYLQWGGDDPLGTSTTDITLNVTDHFAENAAIYFPQFGTATPRVDLNLHRMNASQMSGRANLDMCLYDGGVKARSLQMKIEGSNKSGTGFQVIKSDSADTIDYAVSMNYGGRSIPVTRGVEFSLDNVDKAATRPVVLPGQRQAVRCVPVPLTLTTQPFNIREKRSGEYQGTLTVTMLMGTQTPEGHHHHHH | not soluble
7 | MALRFITAEEAAEFVHHNDNVGFSGFTPAGNPKVVPAAIAKRAIAAHEKGNPFKIGMFTGASTGARLDGVLAQADAVKFRTPYQSNKDLRNLINNGSTSYFDLHLSTLAQDLRYGFYGKVDVAIIEVADVTEDGKILPTTGVGILPTICRLADRIIVELNDKHPKEIMGMHDLCEPLDPPARRELPVYTPSDRIGKPYVQVDPAKIVGVVRTSEPNDESDFAPLDPVTQAIGDNVAAFLVSEMKAGRIPKDFLPLQSGVGNVANAVLGALGDNPDIPAFNMYTEVIQDAVIALMKKGRIKFASGCSLSVSRSVIQDIYANLDFFKDKILLRPQEYSNNPEIVRRLGVITINTALEADIFGNINSTHVSGTRMMNGIGGSGDFTRNSYVSIFTTPSVMKDGKISSFVPMVAHHDHSEHSVKVIISEWGVADLRGKNPRERAHEIIDKCVHPDYRPLLRQYLELGVKGQTPQNLDCCFAFHQELAKSGDMRNVRWEDYMK | not soluble
8 | EKDSVLRHNINKLGLTSIAVEPVAAWKLNDRHSFGAGIIAQHTSAELRKYADWGIKSKAEILTAKPPKPNGVAEAAKIQADGHADVKGSDWGFGYQLAWMWDINDRARVGVNYRSKVSHTLKGDAEWAADGAAAKAMWSTMLAANGYTANEKARVKIVTPESLSVHGMYKVSDKADLFGDVTWTRHSRFDKAELVFEKEKTVVKGKSDRTTITPNWRNTYKVGFGGSYQISEPLQLRAGIAFDKSPVRNADYRMNSLPDGNRIWFSAGMKYHIGKNHVVDAAYTHIHINDTSYRTAKASGNDVDSKGASSARFKNHADIIGLQYTYKFK | not soluble
9 | MGSDKIHHHHHHESDLEQVTYSSENAIPSTLSSLNDNYILESKNASQEAFTLTWSHPDLGYQASVINSLEMDVKDKNFANKVILASSKTDVSHTITVSDLNSKIMALLKVYEMETAPIGIEFRISSSISAAADTLYSNIVSTTITPYEGEPEYPAITLRGSYNGWDFTKSQKVYSVNSDNIYAAMVYFDGKAADGWKFCGTEDWSTDNWGAPESMTPEQSPVTLVSGNGGDIKAYSKNSYYLEFNNTTGELKVSKPHNSWGIVGDHNSWGSGDTMMTLETETDENNKFQYYLKATLDMSAGNKWKIRPEEKWEDDIAPGAVEGEFEDAGDGNFKVSEAGNYTIKWYFNKVTPKIIVVKNK | not soluble
10 | MGSDKIHHHHHHMSKIVALYNNKGGVSKTTTNFNLGVYLSQQGKRVLMVDCDPQCNLTELFFASRDDLEEPDVQLPGTSIYDALLPRFKGHQGRIEQSGIEVSEHSLYSSLFLFRGDLEFSRAETYLGTSWSQAVTENIHEKNTYIVFNKLMKDIGSARGYDYILCDVGPSTGAITKTVIISCDEIVIPLVPDRFCYQAVKLLGSVISEWIENHKIISDSLVPFGIEPFEGNPKLAGTVLQNFKVHAGSKVKESYIKWQKKITEEIQSSLCKENGFSPKVGFNIEEPYTASIKDVAVLAPVAQLFGRAIFDIEQEHTKEASSNGQMYYGTVWQPWLDRMSEYKEEIAKIAEAIS | not soluble
11 | MGHHHHHHSHMAPPRIGTHNGTFHCDEALACALLRLLPEYRDAEIVRTRDPEKLASCDIVVDVGGEYDPRRHRYDHHQRSFTETMSSLSPGKPWQTKLSSAGLIYLHFGHKLLAQLLGTSEEDSMVGTLYDKAGFKRAMDLVQEEFLQRLDFYQHSWLPARALVEEALAQRFQVDPSGEIVELAKGACPWKEHLYHLESGLSPPVAIFFVIYTDQAGQWRIQCVPKEPHSFQSRLPLPEPWRGLRDEALDQVSGIPGCIFVHASGFIGGHRTREGALSMARATLAQRSYLPQIS | soluble
12 | SSVPPGSIIVSDWHRCPDSREFFSKILHKKRRRKFGLLEAPMMPPQMNVDLVRYKVFLSGKTGVGKSALAARLAGLDLPKMHYETTGIETTVVFWPVRLKESGRVLFFRFELWDCGESAMRRFDHMLLSCKEKVDAILFLFSFTDRGSFDDLTNQISRITEPSDRVVKLVVGTKFDLFMHTDVTESDVTHFQEVWGLPVFRVGGDVSAGLGEVAPLLNALAENLWHQDCMAASSVSISPQAALRETSSEIIV | not soluble
13 | MGSDKIHHHHHHLKQFRRNYSDPNRGPTGKGVAKYQALKHTCQVCPSKMKCCPKADARKITREEHEDARQVARKIAETKQYVISMRLKKKVEMLFAHLKRILGLGRLRLRDPSRDHGYAMTLPGTACSASDEFLLAATAQNLRKLAKTFPAPQQTRKA | not soluble
14 | MAHHHHHHMADYGWTRGKLPKFRARSPFHRQQIARRMVTEMIRKDYCIVGGARAPALRILADHVVELAKAGDTDSRQQLAYFLHDPLMVDKAFDEYPRRFKDMNAKYAMMTRLKSRRRTDAVAMYFVEYKNRDMSDNHKGEDYSAGPERFFLPPRIVETEKGIQRPPHMQMAFDRWASKFKTEEFHHWWRLRHAKLRYWGVRNVPHPSDVDPLWTEKEEEEWHNEMLANTGEYEDLDLDDESYTAAGEGGEPSPAGDGPQPQRVG | not soluble
15 | TVKSFVMRAGRMTEGQQRGLDLGWPKFGLELSDEVQDFDAIFGRQAPRTFEIGFGMGHSTLEMAAAAPDIDFIGVEVHKPGVGALLNGLLTQGLGNVRVYSCDALEVLRHCVADASLDRLLLFFPDPWHKKRHHKRRIVQPEFAELVRRKLKVGGVLHMATDWEPYAEHMLDVMSAAPGYRNQAEDGRFVPRPQERPVTKFERRGERLGHGVWDLKFER | not soluble
16 | MGSDKIHHHHHHMFEMGIQELVKTIDTNINHMISLSVLNLAQLGIKYGIFKAVASRPSYEELLSQIPVPNKPLLKKLIEHLKALGIIEETPSNLILNGFSYVLKFPKEDYMLLLSDWIPIWEEIYKMVDFALISYSHPYVLMDFDKDADFWDIRLSSSFNKTYRDAIINLGEIREDSYILDLGCGSVSPAYFGKFISEDGKYVGVDYSPGLLEIARERVERNGLPAELKEMDVSLIRTRSKYDVAIMSFLLEYVRDREEVLGKVLEALDSGGKLIIVEAFRDEFENIQAMEFFESLNRSFVGYPAKAEIKKAILREGFDVSFEDYGKSILVVRKL | not soluble
17 | MQGMREIKRRIRSVKNTRQITKAMKMVAAAKLRRAQETAENARPYADKIKEVISSIAAGTKDFSHPMLEARPVKKTGYMVITSDRGLAGPYNANILRLVSKTIEERHQSKDEYVIFAVGRKGRDFFKKRGYPVVEEVTGISDTPSLTEIQDIAQSAIGMFADETFDKLTIFYNEFVSPIVQRPVEKQLLPLTSEEVLDGPVSAYEYEPDSESVLEVLLPKYAETLIYSALLDAKASEFGARMTAMGNATDNATEMLETLTLQFNRARQAAITQEIAEIVAGANALR | soluble
18 | MHHHHHHGKPIPNPLLGLDSTENLYFQGIDPFTKAYAFGFPKIGEKREFKKALEDFWKGKITEEQFEEEMNKLRMYMVENYRKNVDVIPSNELSYYDFVLDTAVMVGAVPERFGEYRGLSTYFDMARGGKALEMTKFFNTNYHYLVPEIETEEFYLLENKPLEDYLFFKSKGIETAPWVIGPFTFLYLSKRNGEWIRRPNQMEKLLESLVSVYKEVFEKLVENGCKEILVNEPAFVCDLEKAHWDLILNVYRELSEFPLTVFTYYDSVSDYEACVSLPVKRLHFDFVSNEENLKNLEKHGFPEDKKLVAGVINGRQPWKVDLRKVASLVEKLGASAISNSCPLFHLPVTLELENNLPGGLKEKLAFAKEKLEELKMLKDFLEGKTFDLPNVSFEDFAVDLQAVERVRNLPEDSFRREKEYTERDRIQRERLNLPLFPTTTIGSFPQTPEVRKMRSKYRKGEISKEEYEAFIKEQIKKAIELQEEIGLDVLVHGEFERTDMVEFFAEKLNGIATTQNGWVLSYGSRCYRPPIIYGTVTRPEPMTLKEITYAQSLTEKPVKGMLTGPVTIMSWSYYREDIPEREIAYQIALAINEEVKDLEEAGIKIVQIDEPAFREKAPIKKSKWPEYFEWAINAFNLAANARPETQIHAHMCYSDFNEIIEYIHQLEFDVISIEASRSKGEIISAFENFKGWIKQIGVGVWDIHSPAVPSINEMREIVERVLRVLPKELIWINPDCGLKTRNWDEVIPSLRNMVALAKEMREKFES | soluble
19 | MLTYGAPFNFPRWIDEHAHLLKPPVGNRQVWQDSDFIVTVVGGPNHRTDYHDDPLEEFFYQLRGNAYLNLWVDGRRERADLKEGDIFLLPPHVRHSPQRPEAGSACLVIERQRPAGMLDGFEWYCDACGHLVHRVEVQLKSIVTDLPPLFESFYASEDKRRCPHCGQVHPGRAA | soluble

Source: the DeepSol protein solubility set
